Starred links: 1 amine or outer side, 2 acyl side, 3 side chain; linkers in the order of their positions; H or OH if unused. Non-standard residues stand in square brackets, D forms with d. Primed or numbered codes have the meaning given here. *: point of attachment. NPipG = 2-(piperidin-4-ylamino)acetic acid, O=C(CN(C1CCN([*:3])CC1)[*:1])[*:2]; AC4Abu = α-carboxy-4-aminobutyric acid, O=C(C(CCN[*:1])C(=O)[*:3])[*:2]; dBip = N[C@H](Cc1ccc(-c2ccccc2)cc1)C(=O)O; Oic = O=C(O)[C@@H]1C[C@@H]2CCCC[C@@H]2N1; Phe(4-Cl) = N[C@@H](Cc1ccc(Cl)cc1)C(=O)O; dPhe(4-Cl) = N[C@H](Cc1ccc(Cl)cc1)C(=O)O; Phe(4-I) = N[C@@H](Cc1ccc(I)cc1)C(=O)O; γGlu = O=C(O)[C@H](CCC(=O)[*:2])N[*:1]; HOOC(CH2)8CO = O=C(O)CCCCCCCCC(=O)*; NMeR = CN[C@@H](CCCNC(=N)N)C(=O)O; Palmitoyl = CCCCCCCCCCCCCCCC(=O)*; Tridecanoyl = CCCCCCCCCCCCC(=O)*; hArg = N=C(N)NCCCC[C@H](N)C(=O)O; Cha = N[C@@H](CC1CCCCC1)C(=O)O; NMeL = CN[C@@H](CC(C)C)C(=O)O; αMeL = CC(C)C[C@](C)(N)C(=O)O; β3hN = NC(=O)C[C@H](N)CC(=O)O; Nle = CCCC[C@H](N)C(=O)O; Pip′ = not defined here; AEEA = NCCOCCOCC(=O)O; Aib = CC(C)(N)C(=O)O
T1: human APJ receptor (human, UniProt P35414 1-380)
T1 sequence (looked up): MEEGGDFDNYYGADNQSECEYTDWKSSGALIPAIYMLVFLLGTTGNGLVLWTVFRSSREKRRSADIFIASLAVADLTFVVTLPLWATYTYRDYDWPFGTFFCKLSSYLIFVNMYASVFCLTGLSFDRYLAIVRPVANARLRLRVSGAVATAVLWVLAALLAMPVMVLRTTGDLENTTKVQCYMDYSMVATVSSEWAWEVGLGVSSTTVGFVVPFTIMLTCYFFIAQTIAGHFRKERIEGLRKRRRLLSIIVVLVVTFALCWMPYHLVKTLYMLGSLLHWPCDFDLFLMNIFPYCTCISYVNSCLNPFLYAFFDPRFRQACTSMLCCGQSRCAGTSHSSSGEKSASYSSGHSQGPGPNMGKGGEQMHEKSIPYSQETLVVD

T2: rat APJ receptor (rat, UniProt Q9JHG3 1-377)
T2 sequence (looked up): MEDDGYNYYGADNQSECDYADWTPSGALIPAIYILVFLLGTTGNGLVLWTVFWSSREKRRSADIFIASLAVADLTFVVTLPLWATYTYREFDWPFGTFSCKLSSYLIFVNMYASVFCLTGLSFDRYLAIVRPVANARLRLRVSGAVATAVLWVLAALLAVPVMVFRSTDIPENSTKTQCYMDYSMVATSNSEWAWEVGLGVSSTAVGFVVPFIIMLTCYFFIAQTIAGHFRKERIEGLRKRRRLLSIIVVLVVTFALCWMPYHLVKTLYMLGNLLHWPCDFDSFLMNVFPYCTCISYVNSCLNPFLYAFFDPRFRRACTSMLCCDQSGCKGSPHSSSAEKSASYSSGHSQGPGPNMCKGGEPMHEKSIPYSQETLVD


Experiments:
human APJ receptor = molecular target: T1, human APJ receptor; experiment: cell-based or functional assay
rat APJ receptor = molecular target: T2, rat APJ receptor; experiment: cell-based or functional assay

| EC50 Human APJ Receptor (human APJ receptor) [nM] | EC50 Rat APJ Receptor (rat APJ receptor) [nM] | Binder |
| --- | --- | --- |
| 0.155 | 0.288 | Tridecanoyl-[γGlu][AEEA][AEEA][αMeL]RP[NMeR][αMeL]SHKG[Oic][Nle]P[Phe(4-Cl)]-OH (SMILES CCCCCCCCCCCCC(=O)N[C@@H](CCC(=O)NCCOCCOCC(=O)NCCOCCOCC(=O)N[C@@](C)(CC(C)C)C(=O)N[C@@H](CCCNC(=N)N)C(=O)N1CCC[C@H]1C(=O)N(C)[C@@H](CCCNC(=N)N)C(=O)N[C@@](C)(CC(C)C)C(=O)N[C@@H](CO)C(=O)N[C@@H](Cc1c[nH]cn1)C(=O)N[C@@H](CCCCN)C(=O)NCC(=O)N1[C@H](C(=O)N[C@@H](CCCC)C(=O)N2CCC[C@H]2C(=O)N[C@@H](Cc2ccc(Cl)cc2)C(=O)O)C[C@@H]2CCCC[C@@H]21)C(=O)O) [SEQ ID NO: 375] |
| 0.0525 | 0.0838 | Tridecanoyl-[γGlu][AEEA][AEEA][β3hN]RP[NMeR]LSHKGP[Nle]P[Phe(4-Cl)]-OH (SMILES CCCCCCCCCCCCC(=O)N[C@@H](CCC(=O)NCCOCCOCC(=O)NCCOCCOCC(=O)N[C@@H](CC(N)=O)CC(=O)N[C@@H](CCCNC(=N)N)C(=O)N1CCC[C@H]1C(=O)N(C)[C@@H](CCCNC(=N)N)C(=O)N[C@@H](CC(C)C)C(=O)N[C@@H](CO)C(=O)N[C@@H](Cc1c[nH]cn1)C(=O)N[C@@H](CCCCN)C(=O)NCC(=O)N1CCC[C@H]1C(=O)N[C@@H](CCCC)C(=O)N1CCC[C@H]1C(=O)N[C@@H](Cc1ccc(Cl)cc1)C(=O)O)C(=O)O) [SEQ ID NO: 420] |
| 0.798 | 5.15 | Tridecanoyl-[AC4Abu][AC4Abu][AEEA][dQ]RP[NMeR][Cha]SHKG[Oic][Nle][Aib][Phe(4-Cl)]-OH (SMILES CCCCCCCCCCCCC(=O)NCCC(C(=O)O)C(=O)NCCC(C(=O)O)C(=O)NCCOCCOCC(=O)N[C@H](CCC(N)=O)C(=O)N[C@@H](CCCNC(=N)N)C(=O)N1CCC[C@H]1C(=O)N(C)[C@@H](CCCNC(=N)N)C(=O)N[C@@H](CC1CCCCC1)C(=O)N[C@@H](CO)C(=O)N[C@@H](Cc1c[nH]cn1)C(=O)N[C@@H](CCCCN)C(=O)NCC(=O)N1[C@H](C(=O)N[C@@H](CCCC)C(=O)NC(C)(C)C(=O)N[C@@H](Cc2ccc(Cl)cc2)C(=O)O)C[C@@H]2CCCC[C@@H]21) [SEQ ID NO: 535] |
| 0.0475 | 0.171 | XXXQRPRLSHKGPXPF ({pIFBu}[AC4Abu][Aeea][Aeea]QRP[NMeArg]LSHKGP[Nle]P[4-Cl-F]{COOH}) [SEQ ID NO: 118] |
| 0.0154 | 0.0793 | XXXQRPRLSHKGPXPF ({TDA}[AC4Abu][AC4Abu][Aeea]QRP[NMeArg]LSHKGP[Nle]P[4-Cl-F]{COOH}) [SEQ ID NO: 462] |
| 0.0829 | 0.532 | XXXQRPRLSHKGPXPF ({PDA}[AC4Abu][Aeea][Aeea]QRP[NMeArg]LSHKGP[Nle]P[4-Cl-F]{COOH}) [SEQ ID NO: 495] |
| 0.683 | 3.75 | Tridecanoyl-[AC4Abu][AC4Abu][AEEA][AEEA][dQ]RP[NMeR][Cha]SHKG[Oic][Nle][Aib][Phe(4-Cl)]-OH (SMILES CCCCCCCCCCCCC(=O)NCCC(C(=O)O)C(=O)NCCC(C(=O)O)C(=O)NCCOCCOCC(=O)NCCOCCOCC(=O)N[C@H](CCC(N)=O)C(=O)N[C@@H](CCCNC(=N)N)C(=O)N1CCC[C@H]1C(=O)N(C)[C@@H](CCCNC(=N)N)C(=O)N[C@@H](CC1CCCCC1)C(=O)N[C@@H](CO)C(=O)N[C@@H](Cc1c[nH]cn1)C(=O)N[C@@H](CCCCN)C(=O)NCC(=O)N1[C@H](C(=O)N[C@@H](CCCC)C(=O)NC(C)(C)C(=O)N[C@@H](Cc2ccc(Cl)cc2)C(=O)O)C[C@@H]2CCCC[C@@H]21) [SEQ ID NO: 534] |
| 0.629 | 3.88 | Tridecanoyl-[AC4Abu][AC4Abu][dQ]RP[NMeR][Cha]SHKG[Oic][Nle][Aib][Phe(4-Cl)]-OH (SMILES CCCCCCCCCCCCC(=O)NCCC(C(=O)O)C(=O)NCCC(C(=O)O)C(=O)N[C@H](CCC(N)=O)C(=O)N[C@@H](CCCNC(=N)N)C(=O)N1CCC[C@H]1C(=O)N(C)[C@@H](CCCNC(=N)N)C(=O)N[C@@H](CC1CCCCC1)C(=O)N[C@@H](CO)C(=O)N[C@@H](Cc1c[nH]cn1)C(=O)N[C@@H](CCCCN)C(=O)NCC(=O)N1[C@H](C(=O)N[C@@H](CCCC)C(=O)NC(C)(C)C(=O)N[C@@H](Cc2ccc(Cl)cc2)C(=O)O)C[C@@H]2CCCC[C@@H]21) [SEQ ID NO: 533] |
| 0.0335 | 0.104 | XXXXQRPRLSHKGPXPF ({TDA}[AC4Abu][AC4Abu][Aeea][Aeea]QRP[NMeArg]LSHKGP[Nle]P[4-Cl-F]{COOH}) [SEQ ID NO: 399] |
| 0.592 | 2.03 | Tridecanoyl-[AC4Abu][AEEA][AC4Abu][dQ]RP[NMeR][Cha]SHKG[Oic][Nle][Aib][Phe(4-Cl)]-OH (SMILES CCCCCCCCCCCCC(=O)NCCC(C(=O)O)C(=O)NCCOCCOCC(=O)NCCC(C(=O)O)C(=O)N[C@H](CCC(N)=O)C(=O)N[C@@H](CCCNC(=N)N)C(=O)N1CCC[C@H]1C(=O)N(C)[C@@H](CCCNC(=N)N)C(=O)N[C@@H](CC1CCCCC1)C(=O)N[C@@H](CO)C(=O)N[C@@H](Cc1c[nH]cn1)C(=O)N[C@@H](CCCCN)C(=O)NCC(=O)N1[C@H](C(=O)N[C@@H](CCCC)C(=O)NC(C)(C)C(=O)N[C@@H](Cc2ccc(Cl)cc2)C(=O)O)C[C@@H]2CCCC[C@@H]21) [SEQ ID NO: 536] |
| 0.254 | 0.395 | Palmitoyl-[AC4Abu][AEEA][AEEA][dQ]RP[NPipG][Cha]SHKG[Pip′][Nle][Aib][Phe(4-Cl)]-OH [SEQ ID NO: 645] |
| 38.6 | 38.5 | {HOOC(CH2)8CO}-[γGlu][AEEA][AEEA]Q[hArg]P[dR][NMeL]SHKG[Oic][Phe(4-I)]P[dBip]-OH (SMILES CC(C)C[C@@H](C(=O)N[C@@H](CO)C(=O)N[C@@H](Cc1c[nH]cn1)C(=O)N[C@@H](CCCCN)C(=O)NCC(=O)N1[C@H](C(=O)N[C@@H](Cc2ccc(I)cc2)C(=O)N2CCC[C@H]2C(=O)N[C@H](Cc2ccc(-c3ccccc3)cc2)C(=O)O)C[C@@H]2CCCC[C@@H]21)N(C)C(=O)[C@@H](CCCNC(=N)N)NC(=O)[C@@H]1CCCN1C(=O)[C@H](CCCCNC(=N)N)NC(=O)[C@H](CCC(N)=O)NC(=O)COCCOCCNC(=O)COCCOCCNC(=O)CC[C@H](NC(=O)CCCCCCCCC(=O)O)C(=O)O) [SEQ ID NO: 288] |
| 0.0573 | 0.116 | XXXXXXXQRPRLSHKGPXPF ({TDA}[AC4Abu][Aeea][Aeea][Aeea][Aeea][Aeea][Aeea]QRP[NMeArg]LSHKGP[Nle]P[4-Cl-F]{COOH}) [SEQ ID NO: 398] |
| 24.4 | 14.6 | Tridecanoyl-[γGlu][AEEA][AEEA][β3hN][hArg]P[NMeR][Cha]SHKG[Oic][Nle]P[dPhe(4-Cl)]-OH (SMILES CCCCCCCCCCCCC(=O)N[C@@H](CCC(=O)NCCOCCOCC(=O)NCCOCCOCC(=O)N[C@@H](CC(N)=O)CC(=O)N[C@@H](CCCCNC(=N)N)C(=O)N1CCC[C@H]1C(=O)N(C)[C@@H](CCCNC(=N)N)C(=O)N[C@@H](CC1CCCCC1)C(=O)N[C@@H](CO)C(=O)N[C@@H](Cc1c[nH]cn1)C(=O)N[C@@H](CCCCN)C(=O)NCC(=O)N1[C@H](C(=O)N[C@@H](CCCC)C(=O)N2CCC[C@H]2C(=O)N[C@H](Cc2ccc(Cl)cc2)C(=O)O)C[C@@H]2CCCC[C@@H]21)C(=O)O) [SEQ ID NO: 299] |
| 0.179 | 0.865 | XXXQRPRLSHKGPXPF ({Sebacicacid}[AC4Abu][Aeea][Aeea]QRP[NMeArg]LSHKGP[Nle]P[4-Cl-F]{COOH}) [SEQ ID NO: 509] |
| 1.14 | 3.76 | {HOOC(CH2)8CO}-[γGlu][AEEA][AEEA][hArg]Q[hArg]P[NMeR][Cha]SHKG[Oic][Nle]P[Phe(4-Cl)]-OH (SMILES CCCC[C@H](NC(=O)[C@@H]1C[C@@H]2CCCC[C@@H]2N1C(=O)CNC(=O)[C@H](CCCCN)NC(=O)[C@H](Cc1c[nH]cn1)NC(=O)[C@H](CO)NC(=O)[C@H](CC1CCCCC1)NC(=O)[C@H](CCCNC(=N)N)N(C)C(=O)[C@@H]1CCCN1C(=O)[C@H](CCCCNC(=N)N)NC(=O)[C@H](CCC(N)=O)NC(=O)[C@H](CCCCNC(=N)N)NC(=O)COCCOCCNC(=O)COCCOCCNC(=O)CC[C@H](NC(=O)CCCCCCCCC(=O)O)C(=O)O)C(=O)N1CCC[C@H]1C(=O)N[C@@H](Cc1ccc(Cl)cc1)C(=O)O) [SEQ ID NO: 474] |

From patent US10941182 (Amgen, dated 2021)
